Assay results: PMC3776929 (Cell, 2013)

T1: Arp4 (S. cerevisiae, UniProt P80428 1-489)
T1 construct: Arp4, actin-related protein, N-Module subunit of SWR1, S. cerevisiae; source: endogenous, S. cerevisiae; co-purified in the SWR1 complex
T1 sequence (looked up): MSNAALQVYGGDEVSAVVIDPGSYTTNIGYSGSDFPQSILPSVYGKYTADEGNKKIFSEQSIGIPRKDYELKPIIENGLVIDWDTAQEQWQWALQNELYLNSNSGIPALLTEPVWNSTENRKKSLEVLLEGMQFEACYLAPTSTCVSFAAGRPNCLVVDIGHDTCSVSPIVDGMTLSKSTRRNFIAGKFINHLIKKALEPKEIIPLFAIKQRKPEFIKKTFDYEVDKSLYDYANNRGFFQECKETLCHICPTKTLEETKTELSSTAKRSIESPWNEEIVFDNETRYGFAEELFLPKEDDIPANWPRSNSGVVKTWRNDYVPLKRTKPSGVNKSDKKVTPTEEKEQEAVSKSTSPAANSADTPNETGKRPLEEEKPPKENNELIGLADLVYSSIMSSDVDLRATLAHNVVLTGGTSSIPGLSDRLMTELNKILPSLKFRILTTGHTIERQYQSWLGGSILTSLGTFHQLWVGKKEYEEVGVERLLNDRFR


Key:
Ino80 = biological target: T2, Ino80 (UniProt P53115 1-1489); experiment: co-IP; INO80 complex purified by affinity and glycerol gradient, resolved on 4%-12% Bis-Tris gels in MOPS buffer; band intensities normalised for protein size; conditions: partners not purified
T2 construct: Ino80, catalytic subunit of the INO80 complex
T2 sequence (P53115 whole entry): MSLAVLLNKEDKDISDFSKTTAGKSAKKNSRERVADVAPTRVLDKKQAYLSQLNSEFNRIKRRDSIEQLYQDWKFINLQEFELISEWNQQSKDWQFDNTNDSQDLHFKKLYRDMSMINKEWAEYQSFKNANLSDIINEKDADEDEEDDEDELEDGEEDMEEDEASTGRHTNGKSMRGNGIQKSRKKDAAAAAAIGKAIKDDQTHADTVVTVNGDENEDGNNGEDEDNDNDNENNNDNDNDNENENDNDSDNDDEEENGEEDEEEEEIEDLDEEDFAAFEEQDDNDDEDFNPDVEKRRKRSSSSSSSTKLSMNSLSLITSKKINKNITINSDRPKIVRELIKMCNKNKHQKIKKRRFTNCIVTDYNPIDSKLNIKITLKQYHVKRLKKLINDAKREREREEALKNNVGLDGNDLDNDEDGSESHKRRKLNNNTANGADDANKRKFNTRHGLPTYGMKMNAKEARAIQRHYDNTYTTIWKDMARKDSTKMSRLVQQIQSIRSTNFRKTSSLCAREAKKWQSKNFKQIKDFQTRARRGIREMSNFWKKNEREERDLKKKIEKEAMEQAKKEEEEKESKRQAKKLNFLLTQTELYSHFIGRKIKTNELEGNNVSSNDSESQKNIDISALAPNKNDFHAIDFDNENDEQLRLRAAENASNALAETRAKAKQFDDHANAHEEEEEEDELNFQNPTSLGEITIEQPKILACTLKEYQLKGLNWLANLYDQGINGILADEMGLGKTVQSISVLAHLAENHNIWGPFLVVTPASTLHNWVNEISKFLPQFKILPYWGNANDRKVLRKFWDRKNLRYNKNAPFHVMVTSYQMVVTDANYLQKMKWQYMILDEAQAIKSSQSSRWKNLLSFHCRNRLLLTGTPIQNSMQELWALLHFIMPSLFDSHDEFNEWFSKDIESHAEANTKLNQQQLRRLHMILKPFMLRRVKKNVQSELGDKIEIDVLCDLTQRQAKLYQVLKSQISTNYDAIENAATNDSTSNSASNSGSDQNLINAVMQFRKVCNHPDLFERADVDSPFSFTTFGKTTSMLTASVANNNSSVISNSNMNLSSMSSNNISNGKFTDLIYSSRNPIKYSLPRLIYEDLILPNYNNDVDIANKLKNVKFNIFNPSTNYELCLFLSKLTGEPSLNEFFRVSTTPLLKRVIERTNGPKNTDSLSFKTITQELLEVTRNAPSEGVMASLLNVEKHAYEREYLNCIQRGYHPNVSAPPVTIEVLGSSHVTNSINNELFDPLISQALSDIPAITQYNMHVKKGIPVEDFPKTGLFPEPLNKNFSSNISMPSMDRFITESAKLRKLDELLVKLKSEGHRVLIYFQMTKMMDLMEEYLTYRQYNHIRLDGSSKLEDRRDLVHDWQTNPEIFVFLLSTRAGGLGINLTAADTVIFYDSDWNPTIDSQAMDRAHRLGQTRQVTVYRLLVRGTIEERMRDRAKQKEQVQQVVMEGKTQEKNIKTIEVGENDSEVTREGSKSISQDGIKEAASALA

[1] = biological target: T3, Swr1, FLAG-tagged catalytic subunit of the SWR1 complex (S. cerevisiae, UniProt Q05471 1-1514); experiment: co-IP; FLAG affinity purification of SWR1 (or a subcomplex) from S. cerevisiae, eluted with 3× FLAG peptide; SDS-PAGE (4%-12% Bis-Tris), Coomassie or SYPRO Orange stain; band intensities normalised for protein size for the stoichiometry; conditions: partners not purified
T3 construct: Swr1, catalytic ATPase subunit of the SWR1 complex, S. cerevisiae; HSA domain in the N-terminal half, split ATPase domain with long insert in the C-terminal half; also called Swr1-3xFLAG; Swr1 ATPase
T3 sequence (Q05471 whole entry, the tested form may be a part, one chain of several): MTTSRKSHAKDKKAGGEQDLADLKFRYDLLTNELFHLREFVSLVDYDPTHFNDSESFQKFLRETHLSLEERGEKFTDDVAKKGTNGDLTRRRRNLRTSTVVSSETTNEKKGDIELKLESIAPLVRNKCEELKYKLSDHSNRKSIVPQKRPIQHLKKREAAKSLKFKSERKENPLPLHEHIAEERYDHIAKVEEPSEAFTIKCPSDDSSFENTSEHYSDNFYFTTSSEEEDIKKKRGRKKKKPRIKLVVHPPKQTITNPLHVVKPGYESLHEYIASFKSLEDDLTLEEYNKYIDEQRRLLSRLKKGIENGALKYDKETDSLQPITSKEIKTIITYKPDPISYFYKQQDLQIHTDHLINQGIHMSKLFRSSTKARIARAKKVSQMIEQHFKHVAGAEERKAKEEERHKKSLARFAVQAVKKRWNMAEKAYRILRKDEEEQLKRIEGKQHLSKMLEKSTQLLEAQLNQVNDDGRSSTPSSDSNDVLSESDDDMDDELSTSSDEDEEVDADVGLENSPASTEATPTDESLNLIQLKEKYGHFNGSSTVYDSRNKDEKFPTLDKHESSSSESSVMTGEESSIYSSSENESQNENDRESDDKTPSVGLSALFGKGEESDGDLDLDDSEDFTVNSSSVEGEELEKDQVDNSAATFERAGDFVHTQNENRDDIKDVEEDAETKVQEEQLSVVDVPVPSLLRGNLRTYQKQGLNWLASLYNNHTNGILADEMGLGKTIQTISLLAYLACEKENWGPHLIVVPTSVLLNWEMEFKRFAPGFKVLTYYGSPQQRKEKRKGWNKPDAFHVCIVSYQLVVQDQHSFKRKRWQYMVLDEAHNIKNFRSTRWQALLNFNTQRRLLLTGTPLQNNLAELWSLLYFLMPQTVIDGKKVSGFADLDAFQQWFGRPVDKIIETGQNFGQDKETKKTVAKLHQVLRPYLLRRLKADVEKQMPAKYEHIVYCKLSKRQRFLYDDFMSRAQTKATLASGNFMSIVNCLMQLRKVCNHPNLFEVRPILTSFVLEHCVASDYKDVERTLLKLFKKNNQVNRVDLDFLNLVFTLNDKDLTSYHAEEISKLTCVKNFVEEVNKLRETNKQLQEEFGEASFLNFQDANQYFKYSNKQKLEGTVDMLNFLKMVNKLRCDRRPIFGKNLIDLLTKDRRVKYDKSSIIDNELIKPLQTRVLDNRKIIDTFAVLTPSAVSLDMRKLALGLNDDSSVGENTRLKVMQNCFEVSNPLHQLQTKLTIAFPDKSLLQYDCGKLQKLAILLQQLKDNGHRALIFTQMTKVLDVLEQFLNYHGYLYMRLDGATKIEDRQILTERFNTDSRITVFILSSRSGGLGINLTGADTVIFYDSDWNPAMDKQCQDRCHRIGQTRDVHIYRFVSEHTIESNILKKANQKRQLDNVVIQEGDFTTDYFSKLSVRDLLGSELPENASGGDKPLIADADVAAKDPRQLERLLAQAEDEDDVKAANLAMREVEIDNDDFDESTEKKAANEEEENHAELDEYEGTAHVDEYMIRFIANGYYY

Arp4 = biological target: T1, Arp4; experiment: cross-linking; ∼45 μg affinity-purified SWR1 cross-linked with 1 mM DSS d0/d12 in SWR1 buffer, 37°C, 30 min; trypsin, SEC enrichment, LC-MS/MS, xQuest (CX-MS); conditions: both partners purified
[2] = biological target: T3, Swr1, FLAG-tagged catalytic subunit of …; experiment: as above; conditions: both partners purified

Binder	stoichiometry N (Ino80)	stoichiometry N [1]	binding result (Arp4)	binding result [2]
Rvb2 (natural protein, S. cerevisiae, UniProt Q12464 1-471, looked up, Rvb2, AAA+ ATPase, S. cerevisiae (YPL235W); also called AAA+ ATPase Rvb2; source: endogenous, S. cerevisiae; co-purified in the SWR1 and INO80 complexes) MSIQTSDPNETSDLKSLSLIAAHSHITGLGLDENLQPRPTSEGMVGQLQARRAAGVILKMVQNGTIAGRAVLVAGPPSTGKTALAMGVSQSLGKDVPFTAIAGSEIFSLELSKTEALTQAFRKSIGIKIKEETELIEGEVVEIQIDRSITGGHKQGKLTIKTTDMETIYELGNKMIDGLTKEKVLAGDVISIDKASGKITKLGRSFARSRDYDAMGADTRFVQCPEGELQKRKTVVHTVSLHEIDVINSRTQGFLALFTGDTGEIRSEVRDQINTKVAEWKEEGKAEIVPGVLFIDEVHMLDIECFSFINRALEDEFAPIVMMATNRGVSKTRGTNYKSPHGLPLDLLDRSIIITTKSYNEQEIKTILSIRAQEEEVELSSDALDLLTKTGVETSLRYSSNLISVAQQIAMKRKNNTVEVEDVKRAYLLFLDSARSVKYVQENESQYIDDQGNVQISIAKSADPDAMDTTE	~3	~3		
Swc4 (natural protein, S. cerevisiae, UniProt P53201 1-476, looked up, Swc4, N-Module subunit of SWR1, S. cerevisiae; source: endogenous, S. cerevisiae; co-purified in the SWR1 complex) MSSSDIFDVLNIKQKSRSPTNGQVSVPSSSAANRPKPQVTGMQRELFNLLGENQPPVVIKSGNNFKEKMLSTSKPSPWSFVEFKANNSVTLRHWVKGSKELIGDTPKESPYSKFNQHLSIPSFTKEEYEAFMNENEGTQKSVESEKNHNENFTNEKKDESKNSWSFEEIEYLFNLCKKYDLRWFLIFDRYSYNNSRTLEDLKEKFYYTCRNYFKASDPSNPLLSSLNFSAEKEIERKKYLQRLLSRSAAEIAEEEALVVESKKFEMAAKRTLAERESLLRLLDSPHSDQTITQYLTSQGMSQLYNALLADKTRKRKHDLNIPENPWMKQQQQFAQHRQLQQLNVKKSEVKENLSPKKTKRQRQEMQTALKRKSESAYAEQLLKDFNSDERKALGVITHGEKLSPGVYLRSTKLSTFKPALQNKILAILQELSLPSRPVMPSFDVMERQEELLKKINTLIDLKKHVDKYEAGMSITK			binds	binds

More lines, now with the values ahead:

stoichiometry N (Ino80)	stoichiometry N [1]	binding result (Arp4)	binding result [2]	Binder
~3	~3	binds		Rvb1 (natural protein, S. cerevisiae, UniProt Q03940 1-463, looked up, Rvb1, AAA+ ATPase, S. cerevisiae (YDR190C); also called AAA+ ATPase Rvb1; source: endogenous, S. cerevisiae; co-purified in the SWR1 and INO80 complexes) MVAISEVKENPGVNSSNSGAVTRTAAHTHIKGLGLDESGVAKRVEGGFVGQIEAREACGVIVDLIKAKKMSGRAILLAGGPSTGKTALALAISQELGPKVPFCPLVGSELYSVEVKKTETLMENFRRAIGLRIKETKEVYEGEVTELTPEDAENPLGGYGKTISHVIVGLKSAKGTKTLRLDPTIYESIQREKVSIGDVIYIEANTGAVKRVGRSDAYATEFDLETEEYVPLPKGEVHKKKEIVQDVTLHDLDVANARPQGGQDVISMMGQLLKPKKTEITEKLRQEVNKVVAKYIDQGVAELIPGVLFIDEVNMLDIEIFTYLNKALESNIAPVVVLASNRGMTTVRGTEDVISPHGVPPDLIDRLLIVRTLPYDKDEIRTIIERRATVERLQVESSALDLLATMGTETSLRYALQLLAPCGILAQTSNRKEIVVNDVNEAKLLFLDAKRSTKILETSANYL
			binds	Swc3 (natural protein, S. cerevisiae, UniProt P31376 1-625, looked up, Swc3, C-Module subunit of SWR1, S. cerevisiae; source: endogenous, S. cerevisiae; co-purified in the SWR1 complex) MPAVLRTRSKESSIEQKPASRTRTRSRRGKRGRDDDDDDDDEESDDAYDEVGNDYDEYASRAKLATNRPFEIVAGLPASVELPNYNSSLTHPQSIKNSGVLYDSLVSSRRTWVQGEMFELYWRRPKKIVSESTPAATESPTSGTIPLIRDKMQKMCDCVMSGGPHTFKVRLFILKNDKIEQKWQDEQELKKKEKELKRKNDAEAKRLRMEERKRQQMQKKIAKEQKLQLQKENKAKQKLEQEALKLKRKEEMKKLKEQNKNKQGSPSSSMHDPRMIMNLNLMAQEDPKLNTLMETVAKGLANNSQLEEFKKFIEIAKKRSLEENPVNKRPSVTTTRPAPPSKAKDVAEDHRLNSITLVKSSKTAATEPEPKKADDENAEKQQSKEAKTTAESTQVDVKKEEEDVKEKGVKSEDTQKKEDNQVVPKRKRRKNAIKEDKDMQLTAFQQKYVQGAEIILEYLEFTHSRYYLPKKSVVEFLEDTDEIIISWIVIHNSKEIEKFKTKKIKAKLKADQKLNKEDAKPGSDVEKEVSFNPLFEADCPTPLYTPMTMKLSGIHKRFNQIIRNSVSPMEEVVKEMEKILQIGTRLSGYNLWYQLDGYDDEALSESLRFELNEWEHAMRSRRHKR
